According to publication PMC3024583:
Where a chain is given by its changes, count along the chain named. Read-outs that look alike come from different tables or passages of the source.

Legend:
Assay in all cases: EMSA
[1] = molecular target: T1, CSL (CBF1);Notch1 RAMANK wild-type;MAML1 (human?;human;human?, UniProt Q06330;P46531;Q92585 23-449;1760-2126;13-74, ||)
[2] = molecular target: CSL (CBF1);Notch1 RAMANK R1985A;MAML1 (human?;human;human?, UniProt Q06330;P46531;Q92585 23-449;1760-2126;13-74, |R1984A|)
CSL (CBF1);Notch1 RAMANK R1985A;MAML1, sequence (Q06330 23-449, chain 1 of 3): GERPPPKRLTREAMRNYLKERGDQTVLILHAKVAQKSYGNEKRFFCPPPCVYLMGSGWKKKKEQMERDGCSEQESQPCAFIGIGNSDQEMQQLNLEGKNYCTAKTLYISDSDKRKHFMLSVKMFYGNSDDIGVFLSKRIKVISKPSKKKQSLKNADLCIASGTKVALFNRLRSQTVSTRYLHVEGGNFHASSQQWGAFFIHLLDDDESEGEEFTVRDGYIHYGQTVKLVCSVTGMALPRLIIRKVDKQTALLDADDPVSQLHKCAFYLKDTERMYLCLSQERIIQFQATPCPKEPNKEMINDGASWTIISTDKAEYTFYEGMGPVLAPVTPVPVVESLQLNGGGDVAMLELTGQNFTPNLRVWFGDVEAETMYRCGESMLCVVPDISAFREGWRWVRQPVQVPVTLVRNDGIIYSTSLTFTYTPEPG
CSL (CBF1);Notch1 RAMANK R1985A;MAML1, sequence (P46531 1760-2126 R1984A, chain 2 of 3): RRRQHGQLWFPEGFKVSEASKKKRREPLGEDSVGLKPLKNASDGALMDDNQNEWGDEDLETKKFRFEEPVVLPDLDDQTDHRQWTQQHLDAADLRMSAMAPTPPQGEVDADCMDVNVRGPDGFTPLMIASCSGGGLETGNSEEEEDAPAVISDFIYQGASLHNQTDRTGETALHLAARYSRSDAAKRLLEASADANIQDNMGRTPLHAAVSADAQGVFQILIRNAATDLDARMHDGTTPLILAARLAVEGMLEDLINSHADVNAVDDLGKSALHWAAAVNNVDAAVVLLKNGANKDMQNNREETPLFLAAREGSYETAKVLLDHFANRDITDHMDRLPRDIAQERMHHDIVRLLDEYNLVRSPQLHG
CSL (CBF1);Notch1 RAMANK R1985A;MAML1, sequence (Q92585 13-74, chain 3 of 3): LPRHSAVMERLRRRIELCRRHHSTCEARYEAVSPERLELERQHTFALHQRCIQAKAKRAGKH

[3] = molecular target: T1, CSL (CBF1);Notch1 RAMANK wild-type;MAML1; remark: listed apart in the source
[4] = molecular target: T1, CSL (CBF1);Notch1 RAMANK wild-type;MAML1; remark: listed apart in the source
[5] = molecular target: T1, CSL (CBF1);Notch1 RAMANK wild-type;MAML1; remark: listed apart in the source
[6] = molecular target: T1, CSL (CBF1);Notch1 RAMANK wild-type;MAML1; remark: listed apart in the source
[7] = molecular target: T1, CSL (CBF1);Notch1 RAMANK wild-type;MAML1; remark: listed apart in the source

T1 sequence (Q06330 23-449, chain 1 of 3): as the sequence (Q06330 23-449, chain 1 of 3) above
T1 sequence (P46531 1760-2126, chain 2 of 3): as the sequence (P46531 1760-2126 R1984A, chain 2 of 3) above, with A225R counted along it
T1 sequence (Q92585 13-74, chain 3 of 3): as the sequence (Q92585 13-74, chain 3 of 3) above

B1: Single-site control (dsDNA)
DNA 1: GGAAACACGCCGTGGGAAAAAATTTGGC
DNA 2: GCCAAATTTTTTCCCACGGCGTGTTTCC
B1: binds [1]; binds [2].

B2: FJX1 SPS (dsDNA)
DNA 1: GGACCTGTGAATCGCGCCCACCGGAGGGTCTCACAAGC
DNA 2: GCTTGTGAGACCCTCCGGTGGGCGCGATTCACAGGTCC
B2: binds [3].

B3: HES1 SPS (dsDNA)
DNA 1: AGTTACTGTGGGAAAGAAAGTTTGGGAAGTTTCACACGAGCCGTTC
DNA 2: GAACGGCTCGTGTGAAACTTCCCAAACTTTCTTTCCCACAGTAACT
B3: binds [4].

B4: 15bp SPS (SYT14) (dsDNA)
DNA 1: GCCAAACATGGGAAATTGCTGCTATTCTTTTCCCACTACAGCC
DNA 2: GGCTGTAGTGGGAAAAGAATAGCAGCAATTTCCCATGTTTGGC
B4: binds [5].

B5: 17bp SPS (CUL1) (dsDNA)
DNA 1: GAATTACGTGGGAATTATAAATAAATTACTCTTCACACTCTTATCC
DNA 2: GGATAAGAGTGTGAAGAGTAATTTATTTATAATTCCCACGTAATTC
B5: binds [6].

B6: HES5_E_long human (dsDNA)
DNA 1: GCGGAGTGTGGGAACGGCCGCGGCGCCCGGACTCCAGGCGCCAGGCCGC
DNA 2: GCGGCCTGGCGCCTGGAGTCCGGGCGCCGCGGCCGTTCCCACACTCCGC
B6: binds [7].

B7: Hes5_E_long mouse (dsDNA)
DNA 1: B6 DNA 1 with G3C, T33C, A43G
DNA 2: B6 DNA 2 with T7C, A17G, C47G
B7: binds [7].

B8: HES4 SPS (dsDNA)
DNA 1: GGCGAGTGTGGGAAAGAATGCGGAGCCGGGTTCACACACCCCGCGG
DNA 2: CCGCGGGGTGTGTGAACCCGGCTCCGCATTCTTTCCCACACTCGCC
B8: binds [3].
